Test results from patent publication US20180214476.

Test system: T1, thrombin cleavable peptide GGLVPRGSGGC
T1 sequence: GGLVPRGSGGC

## thrombin
  cleavage of the peptide by thrombin, LCMS analysis: the peptides were efficiently cleaved after 12 h incubation with 1 U mL^-1 thrombin in Tris buffer
